The assay deals with sialic acid-binding immunoglobulin-like lectin-9 (Siglec-9), human, on mast cells (human) (UniProt Q9Y336). Put plainly: cell-based or functional assay.
Chain of UniProt Q9Y336 (Q9Y336 18-463): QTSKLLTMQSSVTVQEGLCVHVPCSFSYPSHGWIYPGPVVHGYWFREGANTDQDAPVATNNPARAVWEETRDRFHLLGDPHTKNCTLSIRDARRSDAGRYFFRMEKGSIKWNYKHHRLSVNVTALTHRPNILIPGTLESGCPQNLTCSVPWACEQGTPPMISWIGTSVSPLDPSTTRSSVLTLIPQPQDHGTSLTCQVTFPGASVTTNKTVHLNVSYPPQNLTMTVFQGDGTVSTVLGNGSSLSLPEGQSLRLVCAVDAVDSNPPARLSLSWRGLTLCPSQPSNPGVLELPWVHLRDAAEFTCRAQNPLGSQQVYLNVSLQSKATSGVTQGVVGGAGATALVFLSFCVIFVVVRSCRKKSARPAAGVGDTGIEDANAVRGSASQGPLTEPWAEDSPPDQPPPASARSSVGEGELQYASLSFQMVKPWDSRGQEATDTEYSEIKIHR

Substance “mouse anti-human Siglec-9 monoclonal antibody (clone 191240, R&D Systems)” showed an inhibition of MCP-1 release by HSCMCs (Siglec-9 co-crosslinked with FcεRI by a secondary antibody) of 46.5%; a percentage of surface Siglec-9 signal lost (HSCMCs, 24 h, delayed secondary staining) of 30%; a percentage of surface Siglec-9 signal lost (LAD2 cells, 1 h, delayed secondary staining) of 30%.
